Laboratory results reported in publication PMC3741282, “Novel VEGF Decoy Receptor Fusion Protein Conbercept Targeting Multiple VEGF Isoforms Provide Remarkable Anti-Angiogenesis Effect In Vivo” (PLoS ONE, 2013).

Assays:
Conditions in all cases: both partners purified
[1] = biological target: T1, placental growth factor (PlGF) (UniProt P49763 19-221); experiment: SPR; BIACORE 3000; VEGF-B167 and PlGF immobilized on CM5 chip, FC1 blank; conbercept injected at eight two-fold dilutions 31.25 nM to 4000 nM in HBS buffer
T1 chain: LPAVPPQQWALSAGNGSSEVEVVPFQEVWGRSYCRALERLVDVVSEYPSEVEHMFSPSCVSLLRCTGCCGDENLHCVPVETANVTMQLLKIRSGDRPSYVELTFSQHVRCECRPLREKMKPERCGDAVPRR

VEGF-B167 = biological target: T2, VEGF-B167 (UniProt P49765-2 22-188); experiment: as above
T2 construct: VEGF-B, isoform VEGF-B167; source: bought: R&D
T2 sequence (looked up): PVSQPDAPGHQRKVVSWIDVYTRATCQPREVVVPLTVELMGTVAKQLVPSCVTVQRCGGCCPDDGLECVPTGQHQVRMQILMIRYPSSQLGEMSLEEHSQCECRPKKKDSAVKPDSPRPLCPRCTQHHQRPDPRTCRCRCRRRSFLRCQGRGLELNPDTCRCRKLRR

VEGF-A165 [2] = biological target: T3, VEGF-A165; experiment: ELISA; antigen (VEGF-A165, VEGF-B167 or PlGF) coated at 4 nM in PBS on PVC plate, blocked with 1% BSA; diluted conbercept added 2 h at room temperature; detected with HRP goat anti-human secondary antibody, absorbance at 450 nm
T3 chain: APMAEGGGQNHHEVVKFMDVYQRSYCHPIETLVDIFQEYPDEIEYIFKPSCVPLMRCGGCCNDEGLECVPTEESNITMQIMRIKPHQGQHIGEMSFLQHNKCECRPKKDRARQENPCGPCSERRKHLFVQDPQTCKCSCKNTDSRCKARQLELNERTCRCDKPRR

VEGF-A165 [3] = biological target: T3, VEGF-A165; experiment: SPR; BIACORE 3000; VEGF-A isoforms amine-coupled on CM5 chip (about 5,000±500 RU), FC1 blank; conbercept injected at eight two-fold dilutions 1.25 nM to 160 nM in HBS buffer (10 mM HEPES, 0.15 M sodium chloride, 3.4 mM EDTA, 0.005% surfactant P20); 1:1 binding with baseline drift model
VEGF-A121 = biological target: T4, VEGF-A121; experiment: as above
T4 chain: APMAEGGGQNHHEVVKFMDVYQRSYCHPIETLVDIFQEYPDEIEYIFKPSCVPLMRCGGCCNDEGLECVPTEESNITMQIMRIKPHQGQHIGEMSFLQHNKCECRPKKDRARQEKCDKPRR

B1: conbercept (Fc fusion)
chain: GRPFVEMYSEIPEIIHMTEGRELVIPCRVTSPNITVTLKKFPLDTLIPDGKRIIWDSRKGFIISNATYKEIGLLTCEATVNGHLYKTNYLTHRQTNTIIDVVLSPSHGIELSVGEKLVLNCTARTELNVGIDFNWEYPSSKHQHKKLVNRDLKTQSGSEMKKFLSTLTIDGVTRSDQGLYTCAASSGLMTKKNSTFVRVHEKPFVAFGSGMESLVEATVGERVRIPAKYLGYPPPEIKWYKNGIPLESNHTIKAGHVLTIMEVSERDTGNYTVILTNPISKEKQSHVVSLVVYVPP
modifications: Human IgG1 Fc carrier left out; it dimerises the chain (copies 2). Limits not printed: VEGFR1 Ig2 and VEGFR2 Ig3-4 taken by convention from decoy-receptor boundaries and entry features. Glycosylated …
- Kd [1]: 51.2 nM
- koff [1]: 0.00581 s⁻¹
- kon [1]: 114000 M⁻¹ s⁻¹
- Kd (VEGF-B167): 81.8 nM
- koff (VEGF-B167): 0.00558 s⁻¹
- kon (VEGF-B167): 68300 M⁻¹ s⁻¹
- EC50 (VEGF-A165 [2]): 0.1 nM
- Kd (VEGF-A165 [3]): 5.4 nM
- koff (VEGF-A165 [3]): 0.00105 s⁻¹
- kon (VEGF-A165 [3]): 194000 M⁻¹ s⁻¹
- Kd (VEGF-A121): 5.26 nM
- koff (VEGF-A121): 0.00105 s⁻¹
- kon (VEGF-A121): 199000 M⁻¹ s⁻¹
